The record followed here is patent US20250320312A1 (OXITOPE PHARMA B V, published 2025).

B1: PcOxP_DB02_F07 (scFv, V domains shown)
VH: EVQLLESGGGLVQPGGSLRLSCAASGFWFSDFYMEWVRQAPGKGLEWVAASRNKANDYTTEYADSVKGRFTISRDNSKNTLYLQMNSLRAEDTAVYYCARDYYGSSYWYFDVWGQGTLVTVSS
VL: DIQMTQSPSSLSASVGDRVTITCTASQSLYSSKNKVHYLAWYQQKPGKAPKLLIYGESNRYIGVPSRFSGSGSGTDFTLTISSLQPEDFATYYCAQFYSYPLTFGGGTKVEIK
notes: scFv in periplasmic extract
B2: PcOxP_DB03_A03 (scFv, V domains shown)
VH: B1 VH with W28T
VL: B1 VL with Q27E, N34H, E57A, N59F
notes: scFv in periplasmic extract
B3: PcOxP_DB03_A08 (scFv, V domains shown)
VH: B1 VH with W28T, F32V
VL: B1 VL with Q27E, N34H, E57A
notes: scFv in periplasmic extract
B4: PcOxP_DB02_H10 (scFv, V domains shown)
VH: B1 VH with W28T, F32Y
VL: B1 VL with Q27E, N34H, E57A, S58G, S99E
notes: scFv in periplasmic extract
B5: PcOxP_DB02_F12 (scFv, V domains shown)
VH: B1 VH with W28T, F32A
VL: B1 VL with T24E, Q27E, N34H, E57A, I62P, S99E
notes: scFv in periplasmic extract
B6: PcOxP_DB02_G06 (scFv, V domains shown)
VH: B1 VH with W28T, D31S, F32Y, K54Q, S106P
VL: B1 VL with Q27E, N34H, E57V
notes: scFv in periplasmic extract
B7: PcOxP_DB02_H03 (scFv, V domains shown)
VH: B1 VH with W28T
VL: B1 VL with Q27E, L29I, Y30S, N34H, E57A, R60L, I62S, Q96H
notes: scFv in periplasmic extract
B8: PcOxP_DB02_G07 (scFv, V domains shown)
VH: B1 VH with W28T, F32G
VL: B1 VL with Q27E, N34H, E57A, I62G
notes: scFv in periplasmic extract
B9: PcOxP_DB02_G09 (scFv, V domains shown)
VH: B1 VH with W28T, F32Q
VL: B1 VL with Q27E, N34H, E57A, Y61P
notes: scFv in periplasmic extract
B10: PcOxP_DB03_A09 (scFv, V domains shown)
VH: B1 VH with W28T, F32Y
VL: B1 VL with Q27E, N34H, E57A, Y61G
notes: scFv in periplasmic extract

Positions count from the first letter of the chain named.

For one test, the target named is BSA (UniProt P02769). Kind of test: scFv ELISA. In general terms: In an ELISA, binding on a coated surface is turned into a signal by an enzyme label.
Sequence of BSA (P02769 25-607 limits assumed): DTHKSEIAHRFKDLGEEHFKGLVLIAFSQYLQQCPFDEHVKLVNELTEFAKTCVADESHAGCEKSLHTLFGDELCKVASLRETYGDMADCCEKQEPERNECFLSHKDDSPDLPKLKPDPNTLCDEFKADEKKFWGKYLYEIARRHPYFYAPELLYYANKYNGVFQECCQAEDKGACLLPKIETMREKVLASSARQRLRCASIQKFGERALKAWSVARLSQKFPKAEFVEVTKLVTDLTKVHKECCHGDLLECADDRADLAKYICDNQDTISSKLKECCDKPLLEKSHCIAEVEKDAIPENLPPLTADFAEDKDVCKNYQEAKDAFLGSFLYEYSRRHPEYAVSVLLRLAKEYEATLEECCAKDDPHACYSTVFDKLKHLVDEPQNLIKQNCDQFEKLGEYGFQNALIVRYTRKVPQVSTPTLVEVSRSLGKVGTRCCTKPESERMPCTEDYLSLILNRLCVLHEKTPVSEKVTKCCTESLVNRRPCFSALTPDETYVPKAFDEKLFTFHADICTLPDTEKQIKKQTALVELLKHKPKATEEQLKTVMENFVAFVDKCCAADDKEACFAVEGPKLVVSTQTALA
Take B1: the OD450 amounted to 0.1 OD450.
B2: the OD450 is 0.09 OD450.
Still for that read-out and setting: under B3 stands 0.11 OD450.
Consider B4, for which the OD450 came to 0.08 OD450.
The molecule B5 had an OD450 of 0.07 OD450.
Molecule B6 gave an OD450 of 0.08 OD450.
B7 had an OD450 of 0.08 OD450.
Take B8: the OD450 came out at 0.1 OD450.
Take B9: the OD450 is 0.1 OD450.
On the same count and under the same terms, next, B10: 0.09 OD450.

Another test concerns the target Peptide 5: Biotin-…-[Tyr(PC)]-acid. Kind of test: scFv ELISA.
For the molecule B1, the OD450 was 0.91 OD450.
Turning to B2, the OD450 is 0.81 OD450.
In turn, B3 registered an OD450 of 0.71 OD450.
On the same count and under the same terms, next, B4: 1.39 OD450; B5: 0.81 OD450.
The molecule B6 came in with an OD450 of 0.87 OD450.
B7 displayed an OD450 of 0.82 OD450.
B8: the OD450 came to 0.99 OD450.
Regarding B9, the OD450 came out at 0.71 OD450.
In the case of B10, the OD450 came out at 1.09 OD450.

Another test addresses Peptide 1: Biotin-…-[Tyr(PC)]-acid. Put plainly: scFv ELISA.
As to B1, the OD450 came out at 0.43 OD450.
Still for that read-out and setting: next, B2: 0.54 OD450; B3: 0.67 OD450.
In turn, B4 came in with an OD450 of 1.43 OD450.
B5: the OD450 was 0.5 OD450.
Regarding B6, the OD450 is 0.43 OD450.
With B7, the OD450 turned out to be 0.27 OD450.
Same read-out and setting: under B8 stands 0.52 OD450; under B9, 0.35 OD450.
Turning to B10, the OD450 was 1.02 OD450.

In a further test the target is T1, Peptide 8: Biotin-AEAAAKEAAAKEAAAKEAAAKAAA-Tyr-acid (N-terminal biotin; C-terminal acid).
T1 construct: control peptide without PC
T1 peptide: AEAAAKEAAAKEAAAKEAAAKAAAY
Put plainly: scFv ELISA. In a few lines:
(§1)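 Bound scFv was read as OD450 after HRP–anti-V5 detection, TMB development and HCl stop. PPE with BSA was incubated 1 h at RT on BSA-blocked wells coated overnight at 4° C. with peptide, or on streptavidin wells loaded 1 h with biotinylated PC-peptides at 1 μg/mL.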
Consider B1, for which the OD450 is 0.05 OD450.
B2: the OD450 came to 0.06 OD450.
The same measure, in the same setting: next, B3: 0.05 OD450; B4: 0.05 OD450.
B5 had an OD450 of 0.04 OD450.
On the same count and under the same terms, under B6 stands 0.05 OD450; under B7, 0.05 OD450; under B8, 0.09 OD450.
With B9, the OD450 stood at 0.04 OD450.
With B10, the OD450 came to 0.05 OD450.

A further test concerns the target T2, Peptide 4: Biotin-AGGGGSGGGGSGGGGSAAA-Tyr-acid (N-terminal biotin; C-terminal acid).
T2 construct: control peptide without PC
T2 peptide: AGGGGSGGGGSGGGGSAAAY
Kind of test: scFv ELISA. Put shortly:
as §1
In turn, B1 gave an OD450 of 0.05 OD450.
B2 registered an OD450 of 0.06 OD450.
On the same count and under the same terms, next, B3: 0.06 OD450; B4: 0.05 OD450.
B5: the OD450 amounted to 0.04 OD450.
Molecule B6 displayed an OD450 of 0.06 OD450.
Turning to B7, the OD450 turned out to be 0.05 OD450.
Consider B8, for which the OD450 came to 0.05 OD450.
Take B9: the OD450 worked out at 0.05 OD450.
Molecule B10 displayed an OD450 of 0.05 OD450.
